Assay results as given in article PMC6642547.

Biological target: human GITR-Fc (human) (UniProt Q9Y5U5)
Assay: not stated; binding to and dissociation from the GITR-Fc receptors measured in real time, equilibrium binding constants (KD) calculated; instrument and who was immobilised not told in what was shown

Chain of human GITR-Fc (human) (Q9Y5U5 26-162): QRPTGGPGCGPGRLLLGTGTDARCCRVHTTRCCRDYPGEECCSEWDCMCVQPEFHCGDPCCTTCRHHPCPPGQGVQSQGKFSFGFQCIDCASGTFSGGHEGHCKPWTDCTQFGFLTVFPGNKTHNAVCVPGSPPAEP

Kd: 0.366 nM
Substance: HERA-GITRL (hexavalent TNF receptor agonist; single-chain GITRL-receptor-binding-domain fused to a silenced human IgG1 Fc) (from UniProt Q9UNG2 56-177; Q9UNG2 56-177; Q9UNG2 56-177) (Fc fusion)
